Test results reported in patent US20190276511A1 (BIONTECH RNA PHARMACEUTICALS, published 2019).
Like-named read-outs stand apart in the source and are kept apart here.

T1: OX40-Fc (human, UniProt P43489 29-214)
T1 construct: extracellular domain; hinge included for covalent assembly; also called OX40 receptor-Fc fusion protein; not shown: human Fc gamma 1 region including the hinge region
T1 sequence (looked up): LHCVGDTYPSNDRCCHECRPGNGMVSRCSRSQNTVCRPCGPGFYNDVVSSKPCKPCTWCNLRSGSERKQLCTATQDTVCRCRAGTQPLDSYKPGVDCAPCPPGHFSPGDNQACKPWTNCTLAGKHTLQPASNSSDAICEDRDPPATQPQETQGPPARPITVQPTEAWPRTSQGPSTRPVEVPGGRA

T2: CD27-Fc (human, UniProt P26842 20-191)
T2 construct: extracellular domain; hinge included for covalent assembly; also called CD27 receptor-Fc fusion protein; not shown: human Fc gamma 1 region including the hinge region
T2 sequence (looked up): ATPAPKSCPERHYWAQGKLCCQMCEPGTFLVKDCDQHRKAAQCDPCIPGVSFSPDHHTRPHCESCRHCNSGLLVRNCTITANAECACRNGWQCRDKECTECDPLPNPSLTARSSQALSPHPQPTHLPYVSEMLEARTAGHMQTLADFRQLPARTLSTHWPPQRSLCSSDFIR

T3: OX40 receptor on cells (human, UniProt P43489 29-277)
T3 sequence (looked up): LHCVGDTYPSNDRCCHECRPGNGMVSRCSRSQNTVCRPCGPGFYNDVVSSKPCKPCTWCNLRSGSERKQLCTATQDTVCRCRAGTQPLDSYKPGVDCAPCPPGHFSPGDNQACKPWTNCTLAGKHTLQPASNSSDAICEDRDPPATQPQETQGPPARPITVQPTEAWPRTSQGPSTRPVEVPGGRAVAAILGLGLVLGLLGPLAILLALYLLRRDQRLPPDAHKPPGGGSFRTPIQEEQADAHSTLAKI


Tests used:
4-1BB-Fc = target: T4, 4-1BB-Fc (human, UniProt Q07011 24-186); assay: ELISA, coated receptor-Fc
T4 construct: extracellular domain; hinge included for covalent assembly; also called 4-1BB receptor-Fc fusion protein; not shown: human Fc gamma 1 region including the hinge region

OX40-Fc = target: T1, OX40-Fc; assay: ELISA, coated receptor-Fc
CD40 receptor on cells [1] = target: T5, CD40 receptor on cells (human, UniProt P25942 21-277); assay: cell-based or functional assay
CD40-Fc [2] = target: T6, CD40-Fc (human, UniProt P25942 21-193); assay: ELISA, coated receptor-Fc
T6 construct: extracellular domain; hinge included for covalent assembly; also called CD40 receptor-Fc fusion protein; not shown: human Fc gamma 1 region including the hinge region
Protocol: (§1) Receptor binding of the single-chain Duokines was analyzed by ELISA using fusion proteins of the extracellular region of CD40, CD27, 4-1BB and OX40, respectively, with the human Fcγ1 region including the hinge region for covalent assembly (CD40-Fc, CD27-Fc, 4-1BB-Fc, OX40-Fc). Receptor-Fc fusion proteins (200 ng/well) were coated overnight at 4° C. and remaining binding sites were blocked with PBS, 2% skimmed milk powder (2% MPBS). […] The interactions between scDuokine and receptor were dose-dependent with EC₅₀ values in the low nanomolar ranges (FIG. 11 AB, Tab. 2).

CD27-Fc [3] = target: T2, CD27-Fc; assay: ELISA, coated receptor-Fc
Protocol: as §1

CD40 receptor on cells [4] = target: T5, CD40 receptor on cells; assay: cell-based or functional assay; remark: listed apart in the source
CD40-Fc [5] = target: T6, CD40-Fc; assay: ELISA, coated receptor-Fc; remark: listed apart in the source
Protocol: (§2) Receptor binding of the Duokines was analyzed by ELISA using fusion proteins of the extracellular region of CD40, CD27, 4-1BB and OX40, respectively, with the human Fcγ1 region including the hinge region for covalent assembly (CD40-Fc, CD27-Fc, 4-1BB-Fc, OX40-Fc). Receptor-Fc fusion proteins (200 ng/well) were coated overnight at 4° C. and remaining binding sites were blocked with PBS, 2% skimmed milk powder (2% MPBS).

CD27-Fc [6] = target: T2, CD27-Fc; assay: ELISA, coated receptor-Fc; remark: listed apart in the source
Protocol: as §2

CD40-Fc [7] = target: T6, CD40-Fc; assay: ELISA, coated receptor-Fc; remark: listed apart in the source
OX40 receptor on cells = target: T3, OX40 receptor on cells; assay: cell-based or functional assay

T6 sequence (P25942 21-193 limits assumed): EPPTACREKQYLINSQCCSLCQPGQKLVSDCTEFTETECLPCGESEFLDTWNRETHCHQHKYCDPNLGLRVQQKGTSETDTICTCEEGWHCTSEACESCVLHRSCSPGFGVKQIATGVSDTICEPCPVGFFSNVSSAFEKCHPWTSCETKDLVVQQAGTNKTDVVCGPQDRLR
T5 sequence (P25942 21-277): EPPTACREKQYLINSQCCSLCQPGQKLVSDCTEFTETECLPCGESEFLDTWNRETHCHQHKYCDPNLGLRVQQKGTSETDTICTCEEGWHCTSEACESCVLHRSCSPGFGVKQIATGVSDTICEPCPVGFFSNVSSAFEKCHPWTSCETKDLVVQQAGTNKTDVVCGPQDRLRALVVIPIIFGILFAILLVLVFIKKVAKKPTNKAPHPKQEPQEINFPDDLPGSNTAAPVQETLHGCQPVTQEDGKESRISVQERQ

Row | binding result (4-1BB-Fc) | binding result (OX40-Fc) | Receptor activation (EC50, nM) (CD40 receptor on cells [1]) [nM] | EC50 (CD40-Fc [2]) [nM] | EC50 (CD27-Fc [3]) [nM] | Receptor activation (EC50, nM) (CD40 receptor on cells [4]) [nM] | EC50 (CD40-Fc [5]) [nM] | EC50 (CD27-Fc [6]) [nM] | binding result (CD40-Fc [7]) | Receptor activation (EC50, nM) (OX40 receptor on cells) [nM] | Binder
1 | no binding (tested: 100 nM (FIG. 10)) | no binding (tested: 100 nM (FIG. 10)) | 3.1 | 4.26 | 3.42 | – | – | – | – | – | scCD40L-scCD27L (ligand, scDuokine from HEK293, FLAG-purified; VH leader left out; also called single-chain Duokine scCD40L-scCD27L; not shown: N-terminal FLAG tag) GDQNPQIAAHVISEASSKTTSVLQWAEKGYYTMSNNLVTLENGKQLTVKRQGLYYIYAQVTFCSNREASSQAPFIASLCLKSPGRFERILLRAANTHSSAKPCGQQSIHLGGVFELQPGASVFVNVTDPSQVSHGTGFTSFGLLKLGGGSGGGGDQNPQIAAHVISEASSKTTSVLQWAEKGYYTMSNNLVTLENGKQLTVKRQGLYYIYAQVTFCSNREASSQAPFIASLCLKSPGRFERILLRAANTHSSAKPCGQQSIHLGGVFELQPGASVFVNVTDPSQVSHGTGFTSFGLLKLGGGSGGGGDQNPQIAAHVISEASSKTTSVLQWAEKGYYTMSNNLVTLENGKQLTVKRQGLYYIYAQVTFCSNREASSQAPFIASLCLKSPGRFERILLRAANTHSSAKPCGQQSIHLGGVFELQPGASVFVNVTDPSQVSHGTGFTSFGLLKLGGGGSGGGTGGGGSSLGWDVAELQLNHTGPQQDPRLYWQGGPALGRSFLHGPELDKGQLRIHRDGIYMVHIQVTLAICSSTTASRHHPTTLAVGICSPASRSISLLRLSFHQGCTIASQRLTPLARGDTLCTNLTGTLLPSRNTDETFFGVQWVRPGGGSGGGSLGWDVAELQLNHTGPQQDPRLYWQGGPALGRSFLHGPELDKGQLRIHRDGIYMVHIQVTLAICSSTTASRHHPTTLAVGICSPASRSISLLRLSFHQGCTIASQRLTPLARGDTLCTNLTGTLLPSRNTDETFFGVQWVRPGGGSGGGSLGWDVAELQLNHTGPQQDPRLYWQGGPALGRSFLHGPELDKGQLRIHRDGIYMVHIQVTLAICSSTTASRHHPTTLAVGICSPASRSISLLRLSFHQGCTIASQRLTPLARGDTLCTNLTGTLLPSRNTDETFFGVQWVRP
2 | no binding (tested: 100 nM (FIG. 4)) | no binding (tested: 100 nM (FIG. 4)) | – | – | – | 2.36 | 8.06 | 3.15 | – | – | CD40L-CD27L (ligand, Duokine from HEK293, FLAG-purified; VH leader left out; homotrimer by SEC; also called Duokine CD40L-CD27L; not shown: N-terminal FLAG tag) GDQNPQIAAHVISEASSKTTSVLQWAEKGYYTMSNNLVTLENGKQLTVKRQGLYYIYAQVTFCSNREASSQAPFIASLCLKSPGRFERILLRAANTHSSAKPCGQQSIHLGGVFELQPGASVFVNVTDPSQVSHGTGFTSFGLLKLGGGGSGGGGSGGGGSSLGWDVAELQLNHTGPQQDPRLYWQGGPALGRSFLHGPELDKGQLRIHRDGIYMVHIQVTLAICSSTTASRHHPTTLAVGICSPASRSISLLRLSFHQGCTIASQRLTPLARGDTLCTNLTGTLLPSRNTDETFFGVQWVRP
3 | no binding (tested: 100 nM (FIG. 4)) | – | – | – | – | – | – | 1.7 | no binding (tested: 100 nM (FIG. 4)) | 6.58 | OX40L-CD27L (ligand, Duokine from HEK293, FLAG-purified; VH leader left out; homotrimer by SEC; also called Duokine OX40L-CD27L; not shown: N-terminal FLAG tag) QVSHRYPRIQSIKVQFTEYKKEKGFILTSQKEDEIMKVQNNSVIINCDGFYLISLKGYFSQEVNISLHYQKDEEPLFQLKKVRSVNSLMVASLTYKDKVYLNVTTDNTSLDDFHVNGGELILIHQNPGEFCVLGGGGSGGGGSGGGGSSLGWDVAELQLNHTGPQQDPRLYWQGGPALGRSFLHGPELDKGQLRIHRDGIYMVHIQVTLAICSSTTASRHHPTTLAVGICSPASRSISLLRLSFHQGCTIASQRLTPLARGDTLCTNLTGTLLPSRNTDETFFGVQWVRP
